Our source for the Km and kcat values is ChEMBL document CHEMBL1155741, “Ellagitannins and hexahydroxydiphenoyl esters as inhibitors of vertebrate squalene epoxidase” (J Nat Prod, 2001).

Substrate in this data set: CC(C)=CCC/C(C)=C/CC/C(C)=C/CC/C=C(\C)CC/C=C(\C)CCC=C(C)C
The data set is described as follows: Activity of C-terminal hexahistidine-tagged rat recombinant squalene epoxidase without N-terminal putative membrane domain expressed in Escherichia coli.

B1: Squalene monooxygenase (Rattus norvegicus), P52020 (protein)
chain: MWTFLGIATFTYFYKKCGDVTLANKELLLCVLVFLSLGLVLSYRCRHRNGGLLGRHQSGSQFAAFSDILSALPLIGFFWAKSPPESEKKEQLESKRRRKEVNLSETTLTGAATSVSTSSVTDPEVIIIGSGVLGSALATVLSRDGRTVTVIERDLKEPDRILGECLQPGGYRVLRELGLGDTVESLNAHHIHGYVIHDCESRSEVQIPYPVSENNQVQSGVAFHHGKFIMSLRKAAMAEPNVKFIEGVVLRLLEEDDAVIGVQYKDKETGDTKELHAPLTVVADGLFSKFRKNLISNKVSVSSHFVGFIMKDAPQFKANFAELVLVDPSPVLIYQISPSETRVLVDIRGELPRNLREYMTEQIYPQIPDHLKESFLEACQNARLRTMPASFLPPSSVNKRGVLLLGDAYNLRHPLTGGGMTVALKDIKIWRQLLKDIPDLYDDAAIFQAKKSFFWSRKRSHSFVVNVLAQALYELFSATDDSLRQLRKACFLYFKLGGECLTGPVGLLSILSPDPLLLIRHFFSVAVYATYFCFKSEPWATKPRALFSSGAILYKACSIIFPLIYSEMKYLVH
As a reminder, the Km is the concentration of substrate that gives half-maximal velocity. The term kcat denotes the number of substrate molecules converted per active site and unit of time at saturation. As to B1, the Km was found to be 3.8 µM and the kcat was 4.1 min⁻¹.
